# Source: US20180155451A1 (published 2018)
# T1: FcγRIIa R (human, UniProt P12318 34-217)
# T1 construct: extracellular domain; also called FcgRIIa R type; 2aR
# T1 sequence (looked up): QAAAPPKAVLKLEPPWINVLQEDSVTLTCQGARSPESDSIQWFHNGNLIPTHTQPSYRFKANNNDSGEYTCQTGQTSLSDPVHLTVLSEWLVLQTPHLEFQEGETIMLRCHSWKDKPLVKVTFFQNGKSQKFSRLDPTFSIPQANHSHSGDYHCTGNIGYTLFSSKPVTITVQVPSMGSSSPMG
# B1: GpH7-A5/GpH7-B3 variant N325_06M/GpL16-k0 (antibody, human IgG1, kappa)
# heavy 1: not shown
# heavy 2: not shown
# light: DIVMTQSPLSLPVTPGEPASISCQASESLVHSNRNTYLHWYLQKPGQSPQLLIYKVSNRFSGVPDRFSGSGSGTDFTLKISRVEAEDVGVYYCSQNTHVPPTFGQGTKVEIERTVAAPSVFIFPPSDEQLKSGTASVVCLLNNFYPREAKVQWKVDNALQSGNSQESVTEQDSKDSTYSLSSTLTLSKADYEKHKVYACEVTHQGLSSPVTKSFNRGEC
# notes: also called He Ab N325_06M
# B2: GpH7-A5/GpH7-B3 variant A330_15Y/GpL16-k0 (antibody, human IgG1, kappa)
# heavy 1: not shown
# heavy 2: not shown
# light: B1 light
# notes: also called He Ab A330_15Y
# B3: GpH7-A5/GpH7-B3 variant E333_15Y/GpL16-k0 (antibody, human IgG1, kappa)
# heavy 1: not shown
# heavy 2: not shown
# light: B1 light
# notes: also called He Ab E333_15Y
# B4: GpH7-A5/GpH7-B3 variant E333_04F/GpL16-k0 (antibody, human IgG1, kappa)
# heavy 1: not shown
# heavy 2: not shown
# light: B1 light
# notes: also called He Ab E333_04F
# B5: GpH7-A5/GpH7-B3 variant A330_11K/GpL16-k0 (antibody, human IgG1, kappa)
# heavy 1: not shown
# heavy 2: not shown
# light: B1 light
# notes: also called He Ab A330_11K
# B6: GpH7-A5/GpH7-B3 variant A330_12R/GpL16-k0 (antibody, human IgG1, kappa)
# heavy 1: not shown
# heavy 2: not shown
# light: B1 light
# notes: also called He Ab A330_12R
# B7: GpH7-A5/GpH7-B3 variant E333_07I/GpL16-k0 (antibody, human IgG1, kappa)
# heavy 1: not shown
# heavy 2: not shown
# light: B1 light
# notes: also called He Ab E333_07I
# B8: GpH7-A5/GpH7-B3 variant E269_09D/GpL16-k0 (antibody, human IgG1, kappa)
# heavy 1: not shown
# heavy 2: not shown
# light: B1 light
# notes: also called He Ab E269_09D
# B9: GpH7-A5/GpH7-B3 variant A330_01G/GpL16-k0 (antibody, human IgG1, kappa)
# heavy 1: not shown
# heavy 2: not shown
# light: B1 light
# notes: also called He Ab A330_01G
# B10: GpH7-A5/GpH7-B3 variant E333_09D/GpL16-k0 (antibody, human IgG1, kappa)
# heavy 1: not shown
# heavy 2: not shown
# light: B1 light
# notes: also called He Ab E333_09D
# B11: GpH7-A5/GpH7-B3 variant G236_14T/GpL16-k0 (antibody, human IgG1, kappa)
# heavy 1: not shown
# heavy 2: not shown
# light: B1 light
# notes: also called He Ab G236_14T
# B12: GpH7-A5/GpH7-B3 variant G237_08L/GpL16-k0 (antibody, human IgG1, kappa)
# heavy 1: not shown
# heavy 2: not shown
# light: B1 light
# notes: also called He Ab G237_08L
# B13: GpH7-A5/GpH7-B3 variant A330_05P/GpL16-k0 (antibody, human IgG1, kappa)
# heavy 1: not shown
# heavy 2: not shown
# light: B1 light
# notes: also called He Ab A330_05P
# B14: GpH7-A5/GpH7-B3 variant E333_05P/GpL16-k0 (antibody, human IgG1, kappa)
# heavy 1: not shown
# heavy 2: not shown
# light: B1 light
# notes: also called He Ab E333_05P
# B15: GpH7-A5/GpH7-B3 variant E333_08L/GpL16-k0 (antibody, human IgG1, kappa)
# heavy 1: not shown
# heavy 2: not shown
# light: B1 light
# notes: also called He Ab E333_08L
# B16: GpH7-A5/GpH7-B3 variant A327_10E/GpL16-k0 (antibody, human IgG1, kappa)
# heavy 1: not shown
# heavy 2: not shown
# light: B1 light
# notes: also called He Ab A327_10E
# B17: GpH7-A5/GpH7-B3 variant A327_09D/GpL16-k0 (antibody, human IgG1, kappa)
# heavy 1: not shown
# heavy 2: not shown
# light: B1 light
# notes: also called He Ab A327_09D
# B18: GpH7-A5/GpH7-B3 variant G237_02A/GpL16-k0 (antibody, human IgG1, kappa)
# heavy 1: not shown
# heavy 2: not shown
# light: B1 light
# notes: also called He Ab G237_02A
# B19: GpH7-A5/GpH7-B3 variant G237_04F/GpL16-k0 (antibody, human IgG1, kappa)
# heavy 1: not shown
# heavy 2: not shown
# light: B1 light
# notes: also called He Ab G237_04F
# B20: GpH7-A5/GpH7-B3 variant A330_19Q/GpL16-k0 (antibody, human IgG1, kappa)
# heavy 1: not shown
# heavy 2: not shown
# light: B1 light
# notes: also called He Ab A330_19Q
# B21: GpH7-A5/GpH7-B3 variant G237_06M/GpL16-k0 (antibody, human IgG1, kappa)
# heavy 1: not shown
# heavy 2: not shown
# light: B1 light
# notes: also called He Ab G237_06M
# B22: GpH7-A5/GpH7-B3 variant L234_10E/GpL16-k0 (antibody, human IgG1, kappa)
# heavy 1: not shown
# heavy 2: not shown
# light: B1 light
# notes: heterodimerized; also called He Ab L234_10E; GpH7-A5/GpH7-B16/GpL16-k0
# B23: GpH7-A5/GpH7-B3 variant P238_04F/GpL16-k0 (antibody, human IgG1, kappa)
# heavy 1: not shown
# heavy 2: not shown
# light: B1 light
# notes: heterodimerized; also called He Ab P238_04F
# B24: GpH7-A5/GpH7-B3 variant P271_07I/GpL16-k0 (antibody, human IgG1, kappa)
# heavy 1: not shown
# heavy 2: not shown
# light: B1 light
# notes: heterodimerized; also called He Ab P271_07I
# B25: GpH7-A5/GpH7-B3 variant L328_10E/GpL16-k0 (antibody, human IgG1, kappa)
# heavy 1: not shown
# heavy 2: not shown
# light: B1 light
# notes: heterodimerized; also called He Ab L328_10E
# B26: GpH7-A5/GpH7-B3 variant P238_15Y/GpL16-k0 (antibody, human IgG1, kappa)
# heavy 1: not shown
# heavy 2: not shown
# light: B1 light
# notes: heterodimerized; also called He Ab P238_15Y
# B27: GpH7-A5/GpH7-B3 variant L328_20W/GpL16-k0 (antibody, human IgG1, kappa)
# heavy 1: not shown
# heavy 2: not shown
# light: B1 light
# notes: heterodimerized; also called He Ab L328_20W
# B28: GpH7-A5/GpH7-B3 variant P271_04F/GpL16-k0 (antibody, human IgG1, kappa)
# heavy 1: not shown
# heavy 2: not shown
# light: B1 light
# notes: heterodimerized; also called He Ab P271_04F
# B29: GpH7-A5/GpH7-B3 variant P271_03V/GpL16-k0 (antibody, human IgG1, kappa)
# heavy 1: not shown
# heavy 2: not shown
# light: B1 light
# notes: heterodimerized; also called He Ab P271_03V
# B30: GpH7-A5/GpH7-B3 variant P271_20W/GpL16-k0 (antibody, human IgG1, kappa)
# heavy 1: not shown
# heavy 2: not shown
# light: B1 light
# notes: heterodimerized; also called He Ab P271_20W
# B31: GpH7-A5/GpH7-B3 variant P238_03V/GpL16-k0 (antibody, human IgG1, kappa)
# heavy 1: not shown
# heavy 2: not shown
# light: B1 light
# notes: heterodimerized; also called He Ab P238_03V
# B32: GpH7-A5/GpH7-B3 variant P271_06M/GpL16-k0 (antibody, human IgG1, kappa)
# heavy 1: not shown
# heavy 2: not shown
# light: B1 light
# notes: heterodimerized; also called He Ab P271_06M
# B33: GpH7-A5/GpH7-B3 variant L234_15Y/GpL16-k0 (antibody, human IgG1, kappa)
# heavy 1: not shown
# heavy 2: not shown
# light: B1 light
# notes: heterodimerized; also called He Ab L234_15Y; GpH7-A5/GpH7-B3-01-15Y/GpL16-k0
# B34: GpH7-A5/GpH7-B3 variant L328_03V/GpL16-k0 (antibody, human IgG1, kappa)
# heavy 1: not shown
# heavy 2: not shown
# light: B1 light
# notes: heterodimerized; also called He Ab L328_03V
# B35: GpH7-A5/GpH7-B3 variant P238_06M/GpL16-k0 (antibody, human IgG1, kappa)
# heavy 1: not shown
# heavy 2: not shown
# light: B1 light
# notes: heterodimerized; also called He Ab P238_06M
# B36: GpH7-A5/GpH7-B3 variant P238_10E/GpL16-k0 (antibody, human IgG1, kappa)
# heavy 1: not shown
# heavy 2: not shown
# light: B1 light
# notes: heterodimerized; also called He Ab P238_10E
# B37: GpH7-A5/GpH7-B3 variant Q295_02A/GpL16-k0 (antibody, human IgG1, kappa)
# heavy 1: not shown
# heavy 2: not shown
# light: B1 light
# notes: heterodimerized; also called He Ab Q295_02A
# B38: GpH7-A5/GpH7-B3 variant P238_08L/GpL16-k0 (antibody, human IgG1, kappa)
# heavy 1: not shown
# heavy 2: not shown
# light: B1 light
# notes: heterodimerized; also called He Ab P238_08L
# B39: GpH7-A5/GpH7-B3 variant L328_14T/GpL16-k0 (antibody, human IgG1, kappa)
# heavy 1: not shown
# heavy 2: not shown
# light: B1 light
# notes: heterodimerized; also called He Ab L328_14T
# B40: GpH7-A5/GpH7-B3 variant P271_13S/GpL16-k0 (antibody, human IgG1, kappa)
# heavy 1: not shown
# heavy 2: not shown
# light: B1 light
# notes: heterodimerized; also called He Ab P271_13S
# B41: GpH7-A5/GpH7-B3 variant P271_02A/GpL16-k0 (antibody, human IgG1, kappa)
# heavy 1: not shown
# heavy 2: not shown
# light: B1 light
# notes: heterodimerized; also called He Ab P271_02A
# B42: GpH7-A5/GpH7-B3 variant P271_12R/GpL16-k0 (antibody, human IgG1, kappa)
# heavy 1: not shown
# heavy 2: not shown
# light: B1 light
# notes: heterodimerized; also called He Ab P271_12R
# B43: GpH7-A5/GpH7-B3 variant L328_19Q/GpL16-k0 (antibody, human IgG1, kappa)
# heavy 1: not shown
# heavy 2: not shown
# light: B1 light
# notes: heterodimerized; also called He Ab L328_19Q
# B44: GpH7-A5/GpH7-B3 variant P271_11K/GpL16-k0 (antibody, human IgG1, kappa)
# heavy 1: not shown
# heavy 2: not shown
# light: B1 light
# notes: heterodimerized; also called He Ab P271_11K
# Target: T1, FcγRIIa R
# Assay: SPR Biacore; vs GpH7-A5/GpH7-B3/GpL16-k0 =100
row,He/Con_2aR,Binder
1,152 % of control,B1
2,102 % of control,B2
3,101 % of control,B3
4,102 % of control,B4
5,110 % of control,B5
6,104 % of control,B6
7,104 % of control,B7
8,105 % of control,B8
9,109 % of control,B9
10,103 % of control,B10
11,103 % of control,B11
12,133 % of control,B12
13,115 % of control,B13
14,105 % of control,B14
15,103 % of control,B15
16,110 % of control,B16
17,124 % of control,B17
18,126 % of control,B18
19,126 % of control,B19
20,104 % of control,B20
21,133 % of control,B21

# Target: T2, FcγRIa (human, UniProt P12314 16-292)
# T2 construct: extracellular domain; also called FcgRI; CD64
# Assay: SPR; vs GpH7-A5/GpH7-B3/GpL16-k0=100
# T2 sequence (P12314 16-292): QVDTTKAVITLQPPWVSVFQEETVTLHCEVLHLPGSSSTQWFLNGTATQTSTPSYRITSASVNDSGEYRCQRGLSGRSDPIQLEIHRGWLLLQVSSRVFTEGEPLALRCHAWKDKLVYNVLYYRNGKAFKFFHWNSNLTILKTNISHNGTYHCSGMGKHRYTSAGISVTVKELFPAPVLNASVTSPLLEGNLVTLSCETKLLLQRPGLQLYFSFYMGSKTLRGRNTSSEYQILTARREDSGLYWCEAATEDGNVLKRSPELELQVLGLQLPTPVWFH
row,He/Con_1a,Binder
1,100 % of control,B22
2,101 % of control,B23
3,102 % of control,B24
4,101 % of control,B25
5,101 % of control,B26
6,103 % of control,B27
7,102 % of control,B28
8,102 % of control,B29
9,103 % of control,B30
10,100 % of control,B31
11,102 % of control,B32
12,100 % of control,B33
13,101 % of control,B34
14,102 % of control,B35
15,102 % of control,B36
16,104 % of control,B37
17,101 % of control,B38
18,100 % of control,B39
19,102 % of control,B40
20,104 % of control,B41
21,102 % of control,B42
22,101 % of control,B43
23,103 % of control,B44
